T1: human IL-23R (human, UniProt Q5VWK5 24-353, limits assumed)
T1 construct: KinExA particles are coated with biotinylated IL-23R 'or a fragment thereof, such as the extracellular domain'; also called huIL-23R; hIL-23R
T1 sequence: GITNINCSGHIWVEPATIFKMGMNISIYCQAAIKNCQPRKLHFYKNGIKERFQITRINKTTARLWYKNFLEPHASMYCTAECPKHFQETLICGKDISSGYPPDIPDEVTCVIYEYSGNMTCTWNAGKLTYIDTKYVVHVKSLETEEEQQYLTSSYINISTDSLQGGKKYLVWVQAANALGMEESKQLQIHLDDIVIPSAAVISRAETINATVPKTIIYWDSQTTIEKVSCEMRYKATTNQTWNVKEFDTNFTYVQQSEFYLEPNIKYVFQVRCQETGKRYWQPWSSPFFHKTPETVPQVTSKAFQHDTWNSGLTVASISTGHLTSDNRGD

T2: human IL-23R on human cells (primary splenocytes; KIT225 cells) (human, UniProt Q5VWK5 24-629)
T2 sequence: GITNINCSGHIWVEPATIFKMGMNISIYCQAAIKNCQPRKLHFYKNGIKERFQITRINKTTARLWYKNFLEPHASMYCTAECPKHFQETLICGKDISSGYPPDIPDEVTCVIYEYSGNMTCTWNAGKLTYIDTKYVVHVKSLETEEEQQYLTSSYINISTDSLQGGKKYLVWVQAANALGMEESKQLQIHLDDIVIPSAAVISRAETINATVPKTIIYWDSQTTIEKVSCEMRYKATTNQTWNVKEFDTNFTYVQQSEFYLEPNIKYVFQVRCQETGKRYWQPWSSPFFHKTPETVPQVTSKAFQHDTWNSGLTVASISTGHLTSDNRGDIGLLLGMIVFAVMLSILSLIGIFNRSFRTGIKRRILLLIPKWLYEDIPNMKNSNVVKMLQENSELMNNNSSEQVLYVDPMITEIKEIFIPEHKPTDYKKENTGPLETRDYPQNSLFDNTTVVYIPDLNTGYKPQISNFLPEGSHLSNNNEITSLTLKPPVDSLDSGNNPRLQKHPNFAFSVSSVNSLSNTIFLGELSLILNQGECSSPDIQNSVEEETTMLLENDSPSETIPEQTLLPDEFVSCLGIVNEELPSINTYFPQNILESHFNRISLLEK


Legend:
human IL-23R [1] = biological target: T1, human IL-23R; assay: BIAcore, antibody immobilized on CM5 chip
Experimental: (§1) BIAcore® label-free interaction analysis system determinations are performed essentially as described at Example 4 of U.S. Patent Application Publication No. 2007/0048315. Briefly, ligands (anti-IL-23R mAbs) are immobilized on a BIAcore® label-free interaction analysis system CM5 sensor chip using standard amine-coupling procedure. Kinetic constants for the various interactions are determined using BIAevaluation software 3.1. The Kd is determined using the calculated dissociation and association rate constants.

human IL-23R [2] = biological target: T1, human IL-23R; assay: KinExA
Experimental: The equilibrium dissociation constants (Kd) for anti human IL-23R antibodies are determined using the KinExA 3000 instrument. Sapidyne Instruments Inc., Boise Id., USA KinExA uses the principle of the Kinetic Exclusion Assay method based on measuring the concentration of uncomplexed antibody in a mixture of antibody, antigen and antibody-antigen complex. The concentration of free antibody is measured by exposing the mixture to a solid-phase immobilized antigen for a very brief period of time. In practice, this is accomplished by flowing the solution phase antigen-antibody mixture past antigen-coated particles trapped in a flow cell. Data generated by the instrument are analyzed using custom software. Equilibrium constants are calculated using a mathematical theory based on the following assumptions:
PMMA particles (Sapidyne, Cat No. 440198) are coated with biotinylated IL-23R (or a fragment thereof, such as the extracellular domain) according to Sapidyne “Protocol for coating PMMA particles with biotinylated ligands having short or nonexistent linker arms.” EZ-link TFP PEO-biotin (Pierce, Cat. No. 21219) is used to make biotinylated IL-23R, as per the manufacturer's recommendations (Pierce bulletin 0874).

human IL-23R [3] = biological target: T1, human IL-23R; assay: BIAcore, essentially as in Example 4
Experimental: as §1

[4] = biological target: T2, human IL-23R on human cells (primary …); assay: cell-based or functional assay

Binder	Kd (human IL-23R [1])	Kd (human IL-23R [2])	Kd (human IL-23R [3])	IC50, IFN-γ production by human primary splenocytes exposed to human IL-23 (170 pM) [4]	IC50, STAT3 phosphorylation in KIT225 cells stimulated with 138 pM human IL-23 [4]
rat anti-human IL-23R antibody 8B10 (antibody, rat IgG2a, V domains shown, also called r8B10; parental rat 8B10 antibody) VH: EVKLVESGGGLEQPKGSLKLSCTVSGFDFNSYGMSWVRQAPGKGLDLVADINSKSYNYATYYADSVKDRFTISRDDSQSMVYLEMDNLKTEDTALYYCTVHHSDYFEYWGQGVMVTVSS VL: DIQMTQSPASLSASLGETVSIECLASEDIYNNLAWYQQKPGKSPQLLIYHASSLQDGVPSRFSGSGSGTQYSLKINSLESEDAATYFCLQDSEYPPTFGGGTKLELKR	~0.3 nM	0.042 nM	–	–	–
mouse anti-human IL-23R antibody 20D7 (antibody, mouse IgG1, V domains shown, also called m20D7; mouse 20D7 antibody) VH: QIQLVQSGPELKKPGETVKISCKASGYTFTNYAMNWVKQAPGKGLKWMGWINTYTGEPTYSDDFKGRFAFSLETSANTAYLQINNLKNEDTAAYFCTRGGGYDEDYFDYWGQGTTLTVSS VL: not shown	~0.085 nM	0.009 nM	–	–	–
humanized anti-IL-23R antibody hum20D7 (heavy chain hu20D7-c, light chain hu20D7-II-b) (antibody, human IgG1, kappa, V domains shown) VH: QVQLVQSGAEVKKPGASVKVSCKASGYTFTNYAMNWVRQAPGQGLEWMGWINTYTGEPTYSDDFKGRVTFTLDTSTSTAYMELRSLRSDDTAVYYCARGGGYDEDYFDYWGQGTLVTVSS VL: DIVMTQSPLSLPVTPGEPASISCKSSQSLFNTINQKTYLAWYLQKPGQSPQLLIYFASTRESGVPDRFSGSGSGTDFTLKISRVEAEDVGVYYCQQHYDTPWTFGQGTKVEIKR	–	–	0.131 nM	34 pM	34 pM

From patent publication US20130064817A1 (Merck Sharp & Dohme, published 2013)
